Biological target: T1, HA-tagged TIP60 (pCIN4-FLAG-HA-TIP60) (UniProt Q92993 1-513)
T1 construct: TIP60 from the plasmid pCIN4-FLAG-HA-TIP60 (gift from Dr. Wei Gu)
Experiment: co-IP; cells co-transfected with AR, TIP60 and increasing amounts of ING3 plasmid + 10 nM MB for 24 h; AR or TIP60 immunoprecipitated with anti-AR or HA-affinity beads
Details: partners not purified

T1 sequence (Q92993 whole entry): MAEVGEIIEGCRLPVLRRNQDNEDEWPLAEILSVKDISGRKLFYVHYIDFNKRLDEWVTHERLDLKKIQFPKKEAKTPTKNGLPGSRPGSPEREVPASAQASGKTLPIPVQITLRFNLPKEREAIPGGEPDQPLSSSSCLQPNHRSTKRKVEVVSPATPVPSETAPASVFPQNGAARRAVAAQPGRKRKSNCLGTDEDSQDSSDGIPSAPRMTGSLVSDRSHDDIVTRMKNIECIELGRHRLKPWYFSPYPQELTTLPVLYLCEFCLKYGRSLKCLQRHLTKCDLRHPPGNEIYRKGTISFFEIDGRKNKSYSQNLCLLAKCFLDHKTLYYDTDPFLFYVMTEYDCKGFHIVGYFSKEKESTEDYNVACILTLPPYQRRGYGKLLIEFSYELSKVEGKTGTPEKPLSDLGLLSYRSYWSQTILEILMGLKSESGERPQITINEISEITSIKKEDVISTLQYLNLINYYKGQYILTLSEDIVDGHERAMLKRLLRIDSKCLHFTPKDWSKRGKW

fold increase of the AR-TIP60 association (ratio AR:HA-TIP60) with co-transfected ING3 against without: ~8 fold
B1: Myc-tagged androgen receptor (pCMV-3myc-AR) (receptor, UniProt P10275 1-920, looked up)
chain: MEVQLGLGRVYPRPPSKTYRGAFQNLFQSVREVIQNPGPRHPEAASAAPPGASLLLLQQQQQQQQQQQQQQQQQQQQQQQETSPRQQQQQQGEDGSPQAHRRGPTGYLVLDEEQQPSQPQSALECHPERGCVPEPGAAVAASKGLPQQLPAPPDEDDSAAPSTLSLLGPTFPGLSSCSADLKDILSEASTMQLLQQQQQEAVSEGSSSGRAREASGAPTSSKDNYLGGTSTISDNAKELCKAVSVSMGLGVEALEHLSPGEQLRGDCMYAPLLGVPPAVRPTPCAPLAECKGSLLDDSAGKSTEDTAEYSPFKGGYTKGLEGESLGCSGSAAAGSSGTLELPSTLSLYKSGALDEAAAYQSRDYYNFPLALAGPPPPPPPPHPHARIKLENPLDYGSAWAAAAAQCRYGDLASLHGAGAAGPGSGSPSAAASSSWHTLFTAEEGQLYGPCGGGGGGGGGGGGGGGGGGGGGGGEAGAVAPYGYTRPPQGLAGQESDFTAPDVWYPGGMVSRVPYPSPTCVKSEMGPWMDSYSGPYGDMRLETARDHVLPIDYYFPPQKTCLICGDEASGCHYGALTCGSCKVFFKRAAEGKQKYLCASRNDCTIDKFRRKNCPSCRLRKCYEAGMTLGARKLKKLGNLKLQEEGEASSTTSPTEETTQKLTVSHIEGYECQPIFLNVLEAIEPGVVCAGHDNNQPDSFAALLSSLNELGERQLVHVVKWAKALPGFRNLHVDDQMAVIQYSWMGLMVFAMGWRSFTNVNSRMLYFAPDLVFNEYRMHKSRMYSQCVRMRHLSQEFGWLQITPQEFLCMKALLLFSIIPVDGLKNQKFFDELRMNYIKELDRIIACKRKNPTSCSRRFYQLTKLLDSVQPIARELHQFTFDLLIKSHMVSVDFPEMMAEIISVQVPKILSGKVKPIYFHTQ
notes: androgen receptor from the plasmid pCMV-3myc-AR (gift from Dr. Marja Nevalainen); pCMV-3myc-AR is the only full-length AR plasmid named; also called AR-Myc; Myc-tagged AR; source: HEK293T, transfected, in lysate
